The values that follow are results of earlier work, collected in paper PMC2483503.

Holding throughout (experiment): ITC
The target in data set [1] is FAK peptide (Homo sapiens) (UniProt Q05397).
Data set [2] addresses FAK peptide FAK peptide (proline-rich and pY motifs) (Homo sapiens) (UniProt Q05397).
Data set [3] addresses FAK proline-rich peptide (PXXP) (Homo sapiens) (UniProt Q05397).
For data set [4], the target named is CD3 zeta ITAM C-terminal pY peptide ITAM C-terminal pY peptide (Homo sapiens) (UniProt P20963).
In data set [5] the target is CD3 zeta ITAM N-terminal pY peptide ITAM N-terminal pY peptide (Homo sapiens) (UniProt P20963).
The target in data set [6] is CD3 zeta ITAM bisphosphopeptide ITAM bisphosphopeptide (Homo sapiens) (UniProt P20963).

Chain of ZAP70 SH2 domains (P43403 1-259): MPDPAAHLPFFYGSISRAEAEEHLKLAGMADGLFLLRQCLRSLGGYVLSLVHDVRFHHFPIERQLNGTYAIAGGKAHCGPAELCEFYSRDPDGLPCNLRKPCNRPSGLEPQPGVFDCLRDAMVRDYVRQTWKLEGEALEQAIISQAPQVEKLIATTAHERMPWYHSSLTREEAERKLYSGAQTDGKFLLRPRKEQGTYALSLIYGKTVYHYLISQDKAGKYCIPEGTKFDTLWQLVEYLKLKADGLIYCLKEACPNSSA
Chain of Fyn SH3-SH2 (P06241 82-246): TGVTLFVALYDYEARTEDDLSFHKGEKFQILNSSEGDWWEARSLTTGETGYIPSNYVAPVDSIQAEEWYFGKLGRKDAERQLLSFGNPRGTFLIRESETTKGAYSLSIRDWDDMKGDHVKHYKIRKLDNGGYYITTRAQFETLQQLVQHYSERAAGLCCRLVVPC
Chain of FAK peptide FAK peptide (proline-rich and pY motifs) (Homo sapiens) (Q05397 368-403): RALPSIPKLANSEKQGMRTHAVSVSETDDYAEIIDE
Chain of FAK peptide (Homo sapiens) (Q05397 2-1052): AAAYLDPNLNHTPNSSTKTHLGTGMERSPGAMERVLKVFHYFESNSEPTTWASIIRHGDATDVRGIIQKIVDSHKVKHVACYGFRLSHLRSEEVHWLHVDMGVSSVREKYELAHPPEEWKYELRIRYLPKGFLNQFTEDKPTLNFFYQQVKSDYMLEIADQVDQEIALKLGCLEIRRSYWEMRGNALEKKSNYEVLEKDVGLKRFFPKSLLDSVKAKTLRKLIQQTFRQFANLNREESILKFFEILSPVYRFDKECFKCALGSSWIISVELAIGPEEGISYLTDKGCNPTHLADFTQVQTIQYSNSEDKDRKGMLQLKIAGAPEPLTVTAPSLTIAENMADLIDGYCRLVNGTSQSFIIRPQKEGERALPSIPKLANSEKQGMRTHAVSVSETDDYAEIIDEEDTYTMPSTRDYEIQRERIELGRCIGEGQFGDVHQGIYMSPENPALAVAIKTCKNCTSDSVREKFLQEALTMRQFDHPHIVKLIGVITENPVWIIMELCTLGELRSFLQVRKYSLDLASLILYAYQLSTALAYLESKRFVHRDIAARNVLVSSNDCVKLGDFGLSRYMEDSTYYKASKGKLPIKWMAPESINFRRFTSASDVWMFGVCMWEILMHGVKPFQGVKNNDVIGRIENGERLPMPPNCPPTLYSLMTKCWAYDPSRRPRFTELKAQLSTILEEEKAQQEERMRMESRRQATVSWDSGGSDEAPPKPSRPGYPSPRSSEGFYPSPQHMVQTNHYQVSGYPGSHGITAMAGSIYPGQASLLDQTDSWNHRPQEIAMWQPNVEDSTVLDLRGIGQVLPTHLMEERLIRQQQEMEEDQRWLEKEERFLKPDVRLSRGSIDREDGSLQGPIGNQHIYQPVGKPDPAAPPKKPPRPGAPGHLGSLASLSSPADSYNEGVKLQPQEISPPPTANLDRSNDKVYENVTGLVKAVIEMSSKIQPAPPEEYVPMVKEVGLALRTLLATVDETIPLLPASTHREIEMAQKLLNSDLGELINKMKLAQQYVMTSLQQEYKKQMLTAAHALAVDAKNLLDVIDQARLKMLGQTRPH
Chain of Fyn SH3 (P06241 79-146): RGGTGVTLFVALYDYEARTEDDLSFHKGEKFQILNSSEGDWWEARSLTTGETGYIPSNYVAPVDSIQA

Fyn SH3-SH2 (from UniProt P06241): the Kd in data set [1] and in data set [2] was 0.19 µM throughout.

Fyn SH3 (from UniProt P06241): the Kd in data set [3] is 62 µM.

As for ZAP70 SH2 domains (from UniProt P43403), the figures for the Kd in data set [4], in data set [5] and in data set [6] were 333 µM, 142 µM and 0.032 µM, respectively.
